Measurements taken from patent US20050181450A1, “Novel inositol 1,4,5-trisphosphate (IP3) receptor-binding protein and an IP3 indicator” (priority 2002, published 2005).

How the values were obtained:
[1] = molecular target: T1, GST-EL (IP3R) (Mus musculus, UniProt P11881, N1264K); assay: [3H]IP3 binding to GST-EL
T1 construct: construct a GST-IP3R1 (1-2217) vector (termed GST-EL); made in house; host or cells: GST-EL: Sf9 cells; His-IRBIT: Sf9 cells or E. coli
Protocol: (A) 0.2 μg of GST-EL was incubated with 0.1, 1, or 10 μg of purified His-tagged IRBIT expressed in Sf9 cells or E. coli in a solution containing 50 mM Tris-HCl (pH 8.0), 1 mM EDTA, and 1 mM 2-mercaptoethanol, for 30 min on ice. Then 8.7 nM [^3H]IP3 (PerkinElmer Life Sciences) was added to the samples and incubated for 10 min on ice (total volume was 50 μl). The samples were mixed with 2 μl of 50 mg/ml γ-globulin and 50 μl of 30% PEG6000, 50 mM Tris-HCl (pH 8.0), and incubated for 5 min on ice. Non-specific binding was measured in the presence of 10 μM cold IP3. After centrifugation at 20,000×g for 5 min, the precipitate was dissolved in SOLVABLE™ (Packard) and the radioactivity was measured with a liquid scintillation counter (Beckman Coulter). Results are shown as the mean±S.D. from three independent experiments. (B) Purified His-IRBIT expressed in Sf9 cells was incubated with alkaline phosphatase for 30 min at 37° C. prior to the IP3 binding assay described as in (A). (C and D) Scatchard analysis. 0.1 μg of GST-EL was incubated with or without 1 μg of purified His-tagged IRBIT expressed in Sf9 cells as described in (A). Then 2.17 nM [^3H]IP3 and 2-500 nM cold IP3 were added to the samples and incubated for 10 min on ice (total volume was 100 μl). Non-specific binding was measured in the presence of 10 μM cold IP3. [^3H]IP3 binding to GST-EL was measured as described in (A).
The effect of IRBIT on binding of IP3 to IP3R was examined. GST-EL (0.2 μg) was incubated with 0.1, 1, or 10 μg of purified His-tagged IRBIT expressed in Sf9 cells or E. coli in a solution containing 50 mM Tris-HCl (pH 8.0), 1 mM EDTA, and 1 mM 2-mercaptoethanol, for 30 min on ice. Then 8.7 nM [^3H]IP3 (PerkinElmer Life Sciences) was added to the samples and incubated for 10 min on ice (total volume was 50 μl). The samples were mixed with 2 μl of 50 mg/ml γ-globulin and 50 μl of 30% PEG6000, 50 mM Tris-HCl (pH 8.0), and incubated for 5 min on ice. Non-specific binding was measured in the presence of 10 μM cold IP3. After centrifugation at 20,000×g for 5 min, the precipitate was dissolved in SOLVABLE™ (Packard) and the radioactivity was measured with a liquid scintillation counter (Beckman Coulter). […] 0.1 μg of GST-EL was incubated with or without 1 μg of purified His-tagged IRBIT expressed in Sf9 cells as described in (A). Then 2.17 nM [^3H]IP3 and 2-500 nM cold IP3 were added to the samples and incubated for 10 min on ice (total volume was 100 μl). Non-specific binding was measured in the presence of 10 μM cold IP3. [^3H]IP3 binding to GST-EL was measured as described in (A). […] Bmax was not changed.

[2] = S-adenosylhomocysteine hydrolase activity in the hydrolytic direction; type: biochemical; conditions: recombinant protein expressed in Escherichia coli; hydrolysis direction
Protocol: The S-adenosylhomocysteine hydrolase activity in the hydrolytic direction of recombinant IRBIT-His (open circle), GST-IRBIT (triangle), GST (square), and S-adenosylhomocysteine hydrolase (closed circle) were measured according to the known method (43). Results are shown as the mean±standard deviation from three independent experimental results.
To assay S-adenosylhomocysteine hydrolase activity in the hydrolytic direction, the color developed by the reaction between the product (Homocysteine) and 5,5′-dithiobis (2-nitrobenzoic acid) (Sigma) was measured spectroscopically using the purified IRBIT-His (3.0 μg), GST-IRBIT (4.3 μg), GST (1.3 μg) and rabbit S-adenosylhomocysteine hydrolase (Sigma) (2.4 μg), according to the known method (43). Absorbance at 412 nm was measured 0, 5, 20 and 60 minutes later using a DU 640 spectrophotometer (Beckman). Results are shown as the mean±standard deviation from three independent experiments (FIG. 2).

[3] = 1 μg His-tagged IRBIT (Sf9), 0.1 μg GST-EL

T1 sequence (P11881 1-2217 N1264K): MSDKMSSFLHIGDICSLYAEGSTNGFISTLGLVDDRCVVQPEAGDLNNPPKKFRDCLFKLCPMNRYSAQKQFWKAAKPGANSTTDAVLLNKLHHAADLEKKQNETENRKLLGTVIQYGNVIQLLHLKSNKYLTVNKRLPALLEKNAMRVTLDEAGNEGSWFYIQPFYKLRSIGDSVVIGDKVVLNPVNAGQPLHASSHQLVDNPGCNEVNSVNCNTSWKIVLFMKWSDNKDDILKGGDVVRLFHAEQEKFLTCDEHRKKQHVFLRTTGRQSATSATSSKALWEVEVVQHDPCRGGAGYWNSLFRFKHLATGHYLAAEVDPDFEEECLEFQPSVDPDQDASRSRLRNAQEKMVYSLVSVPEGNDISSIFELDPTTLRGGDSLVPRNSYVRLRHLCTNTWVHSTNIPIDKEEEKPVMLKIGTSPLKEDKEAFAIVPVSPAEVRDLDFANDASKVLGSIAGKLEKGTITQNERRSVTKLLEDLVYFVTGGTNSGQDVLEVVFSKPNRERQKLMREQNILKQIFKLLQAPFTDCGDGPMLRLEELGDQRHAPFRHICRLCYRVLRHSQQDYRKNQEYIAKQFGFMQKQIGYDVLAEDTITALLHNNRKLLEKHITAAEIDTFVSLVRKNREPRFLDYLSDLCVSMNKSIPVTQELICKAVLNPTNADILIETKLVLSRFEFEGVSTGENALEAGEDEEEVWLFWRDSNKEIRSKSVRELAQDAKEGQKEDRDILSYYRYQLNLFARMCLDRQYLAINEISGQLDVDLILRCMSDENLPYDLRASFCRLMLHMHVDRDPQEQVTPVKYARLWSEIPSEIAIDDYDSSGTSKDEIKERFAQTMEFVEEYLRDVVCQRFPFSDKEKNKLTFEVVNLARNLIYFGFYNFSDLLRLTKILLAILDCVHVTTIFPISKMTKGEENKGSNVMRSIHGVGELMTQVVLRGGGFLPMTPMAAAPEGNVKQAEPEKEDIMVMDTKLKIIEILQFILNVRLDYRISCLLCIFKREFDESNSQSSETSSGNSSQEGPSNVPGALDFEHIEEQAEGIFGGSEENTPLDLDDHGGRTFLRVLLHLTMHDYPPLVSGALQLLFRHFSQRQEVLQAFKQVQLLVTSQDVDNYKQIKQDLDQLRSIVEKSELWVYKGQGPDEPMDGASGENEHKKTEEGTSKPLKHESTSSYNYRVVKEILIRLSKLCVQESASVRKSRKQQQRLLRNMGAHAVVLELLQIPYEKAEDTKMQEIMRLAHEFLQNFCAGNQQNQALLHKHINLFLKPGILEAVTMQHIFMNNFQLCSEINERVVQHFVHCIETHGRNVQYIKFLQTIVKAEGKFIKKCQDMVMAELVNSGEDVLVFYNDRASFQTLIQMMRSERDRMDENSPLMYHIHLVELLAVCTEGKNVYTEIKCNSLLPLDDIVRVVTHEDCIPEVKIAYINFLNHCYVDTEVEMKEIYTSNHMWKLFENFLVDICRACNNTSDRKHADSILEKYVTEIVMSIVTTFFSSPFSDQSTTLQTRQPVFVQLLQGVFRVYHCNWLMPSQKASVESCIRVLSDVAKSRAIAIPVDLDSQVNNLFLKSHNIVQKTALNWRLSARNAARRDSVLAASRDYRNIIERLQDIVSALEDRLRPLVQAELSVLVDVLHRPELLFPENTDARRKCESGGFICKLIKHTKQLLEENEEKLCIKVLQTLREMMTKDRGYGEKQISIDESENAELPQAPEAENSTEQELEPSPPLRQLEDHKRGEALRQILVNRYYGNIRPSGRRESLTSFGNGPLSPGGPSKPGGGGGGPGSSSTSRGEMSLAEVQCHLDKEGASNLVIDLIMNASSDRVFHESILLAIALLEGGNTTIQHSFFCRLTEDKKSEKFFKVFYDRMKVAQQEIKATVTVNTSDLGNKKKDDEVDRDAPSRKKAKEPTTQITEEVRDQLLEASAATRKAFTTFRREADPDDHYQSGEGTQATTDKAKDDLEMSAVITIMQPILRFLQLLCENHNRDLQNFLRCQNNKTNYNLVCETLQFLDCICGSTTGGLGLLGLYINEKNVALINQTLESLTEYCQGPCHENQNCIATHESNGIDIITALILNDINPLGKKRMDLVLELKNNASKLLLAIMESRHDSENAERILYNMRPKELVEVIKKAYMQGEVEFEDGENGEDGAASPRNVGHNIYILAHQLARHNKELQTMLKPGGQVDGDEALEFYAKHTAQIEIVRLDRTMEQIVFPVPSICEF

Row | Bmax (Scatchard analysis) [1, 3] | affinity of GST-EL to IP3 (Scatchard analysis) [1, 3] | effect on IP3 binding of GST-EL ([1]; 0.1, 1 or 10 μg His-tagged IRBIT expressed in Sf9, 8.7 nM [3H]IP3) | Molecule | S-adenosylhomocysteine hydrolase activity [2]
1 | not changed | decreased the affinity | dose-dependently suppressed | His-IRBIT: purified His-tagged IRBIT expressed in Sf9 cells (protein, left off: small tags and cut ends, purified His-tagged IRBIT expressed in Sf9 cells) MSMPDAMPLPGVGEELKQAKEIEDAEKYSFMATVTKAPKKQIQFADDMQEFTKFPTKTGRRSLSRSISQSSTDSYSSAASYTDSSDDEVSPREKQQTNSKGSSNFCVKNIKQAEFGRREIEIAEQDMSALISLRKRAQGEKPLAGAKIVGCTHITAQTAVLIETLCALGAQCRWSACNIYSTQNEVAAALAEAGVAVFAWKGESEDDFWWCIDRCVNMDGWQANMILDDGGDLTHWVYKKYPNVFKKIRGIVEESVTGVHRLYQLSKAGKLCVPAMNVNDSVTKQKFDNLYCCRESILDGLKRTTDVMFGGKQVVVCGYGEVGKGCCAALKALGAIVYITEIDPICALQACMDGFRVVKLNEVIRQVDVVITCTGNKNVVTREHLDRMKNSCIVCNMGHSNTEIDVTSLRTPELTWERVRSQVDHVIWPDGKRVVLLAEGRLLNLSCSTVPTFVLSITATTQALALIELYNAPEGRYKQDVYLLPKKMDEYVASLHLPSFDAHLTELTDDQAKYLGLNKNGPFKPNYYRY | –
2 | – | – | – | IRBIT-His: C-terminally His-tagged full-length IRBIT expressed in Escherichia coli (protein, UniProt O43865 1-530, looked up, full-length C-terminal His tag, C-terminally His-tagged full-length IRBIT expressed in Escherichia coli) MSMPDAMPLPGVGEELKQAKEIEDAEKYSFMATVTKAPKKQIQFADDMQEFTKFPTKTGRRSLSRSISQSSTDSYSSAASYTDSSDDEVSPREKQQTNSKGSSNFCVKNIKQAEFGRREIEIAEQDMSALISLRKRAQGEKPLAGAKIVGCTHITAQTAVLIETLCALGAQCRWSACNIYSTQNEVAAALAEAGVAVFAWKGESEDDFWWCIDRCVNMDGWQANMILDDGGDLTHWVYKKYPNVFKKIRGIVEESVTGVHRLYQLSKAGKLCVPAMNVNDSVTKQKFDNLYCCRESILDGLKRTTDVMFGGKQVVVCGYGEVGKGCCAALKALGAIVYITEIDPICALQACMDGFRVVKLNEVIRQVDVVITCTGNKNVVTREHLDRMKNSCIVCNMGHSNTEIDVTSLRTPELTWERVRSQVDHVIWPDGKRVVLLAEGRLLNLSCSTVPTFVLSITATTQALALIELYNAPEGRYKQDVYLLPKKMDEYVASLHLPSFDAHLTELTDDQAKYLGLNKNGPFKPNYYRY | neither of the recombinant IRBITs had enzyme activity
3 | – | – | – | GST-IRBIT: N-terminally GST-tagged full-length IRBIT expressed in Escherichia coli (protein, UniProt O43865 1-530, looked up, full-length N-terminal GST tag, N-terminally GST-tagged full-length IRBIT expressed in Escherichia coli) MSMPDAMPLPGVGEELKQAKEIEDAEKYSFMATVTKAPKKQIQFADDMQEFTKFPTKTGRRSLSRSISQSSTDSYSSAASYTDSSDDEVSPREKQQTNSKGSSNFCVKNIKQAEFGRREIEIAEQDMSALISLRKRAQGEKPLAGAKIVGCTHITAQTAVLIETLCALGAQCRWSACNIYSTQNEVAAALAEAGVAVFAWKGESEDDFWWCIDRCVNMDGWQANMILDDGGDLTHWVYKKYPNVFKKIRGIVEESVTGVHRLYQLSKAGKLCVPAMNVNDSVTKQKFDNLYCCRESILDGLKRTTDVMFGGKQVVVCGYGEVGKGCCAALKALGAIVYITEIDPICALQACMDGFRVVKLNEVIRQVDVVITCTGNKNVVTREHLDRMKNSCIVCNMGHSNTEIDVTSLRTPELTWERVRSQVDHVIWPDGKRVVLLAEGRLLNLSCSTVPTFVLSITATTQALALIELYNAPEGRYKQDVYLLPKKMDEYVASLHLPSFDAHLTELTDDQAKYLGLNKNGPFKPNYYRY | neither of the recombinant IRBITs had enzyme activity
